Source: patent publication US20190248900A1 (Y BIOLOGICS, published 2019)

Experiments:
Test in all cases: ELISA
[1] = molecular target: T1, TMED1 (Homo sapiens (Human), UniProt Q13445 24-194)
T1 sequence: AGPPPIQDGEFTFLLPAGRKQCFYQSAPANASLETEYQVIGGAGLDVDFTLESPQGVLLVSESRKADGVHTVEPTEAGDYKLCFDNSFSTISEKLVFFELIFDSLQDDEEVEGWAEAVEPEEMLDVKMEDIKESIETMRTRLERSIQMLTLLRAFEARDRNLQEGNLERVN

[2] = molecular target: T2, OSTM1 (Homo sapiens (Human), UniProt Q86WC4 32-284)
T2 sequence: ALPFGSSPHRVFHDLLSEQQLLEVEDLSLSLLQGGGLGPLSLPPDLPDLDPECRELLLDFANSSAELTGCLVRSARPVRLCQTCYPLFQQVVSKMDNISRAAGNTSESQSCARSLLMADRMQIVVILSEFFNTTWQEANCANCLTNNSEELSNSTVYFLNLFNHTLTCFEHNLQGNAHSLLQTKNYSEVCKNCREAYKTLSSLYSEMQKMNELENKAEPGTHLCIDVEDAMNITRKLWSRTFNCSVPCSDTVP

[3] = molecular target: T3, NBL1 (Homo sapiens (Human), UniProt P41271 17-181)
T3 sequence: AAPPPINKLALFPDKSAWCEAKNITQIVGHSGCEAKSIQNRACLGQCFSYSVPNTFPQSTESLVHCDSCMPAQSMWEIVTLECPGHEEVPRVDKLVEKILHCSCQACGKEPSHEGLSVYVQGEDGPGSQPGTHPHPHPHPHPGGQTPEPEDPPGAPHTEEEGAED

[4] = molecular target: T4, EV12A (Homo sapiens (Human), UniProt P22794 31-133)
T4 sequence: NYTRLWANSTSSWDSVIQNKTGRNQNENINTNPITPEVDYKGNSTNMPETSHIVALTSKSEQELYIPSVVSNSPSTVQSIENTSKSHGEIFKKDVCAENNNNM

[5] = molecular target: T5, TLR9 (Homo sapiens (Human), UniProt Q9NR96 26-818)
T5 sequence: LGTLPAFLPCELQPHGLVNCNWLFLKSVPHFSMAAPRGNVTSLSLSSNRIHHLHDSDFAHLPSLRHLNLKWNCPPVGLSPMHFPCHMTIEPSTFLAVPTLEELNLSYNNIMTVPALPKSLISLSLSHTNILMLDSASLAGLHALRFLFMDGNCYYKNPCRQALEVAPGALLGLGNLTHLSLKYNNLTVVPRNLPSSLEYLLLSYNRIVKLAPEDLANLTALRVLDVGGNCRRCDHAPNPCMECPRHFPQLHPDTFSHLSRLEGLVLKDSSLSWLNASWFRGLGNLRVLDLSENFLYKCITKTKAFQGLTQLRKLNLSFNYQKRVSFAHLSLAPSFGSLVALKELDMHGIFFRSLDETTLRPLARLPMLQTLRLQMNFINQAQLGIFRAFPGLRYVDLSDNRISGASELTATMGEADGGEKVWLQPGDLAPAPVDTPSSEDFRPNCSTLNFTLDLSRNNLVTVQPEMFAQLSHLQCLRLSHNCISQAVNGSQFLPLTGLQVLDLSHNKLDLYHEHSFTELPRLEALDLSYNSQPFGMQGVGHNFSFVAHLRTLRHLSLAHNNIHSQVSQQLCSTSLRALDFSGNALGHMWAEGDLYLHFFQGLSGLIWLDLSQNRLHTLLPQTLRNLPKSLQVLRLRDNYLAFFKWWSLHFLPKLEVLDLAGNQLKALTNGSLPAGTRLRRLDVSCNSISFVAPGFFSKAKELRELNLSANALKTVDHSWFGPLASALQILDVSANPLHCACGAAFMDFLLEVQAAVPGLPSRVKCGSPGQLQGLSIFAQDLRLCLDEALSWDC

[6] = molecular target: T6, FSTL3 (Homo sapiens (Human), UniProt O95633 27-263)
T6 sequence: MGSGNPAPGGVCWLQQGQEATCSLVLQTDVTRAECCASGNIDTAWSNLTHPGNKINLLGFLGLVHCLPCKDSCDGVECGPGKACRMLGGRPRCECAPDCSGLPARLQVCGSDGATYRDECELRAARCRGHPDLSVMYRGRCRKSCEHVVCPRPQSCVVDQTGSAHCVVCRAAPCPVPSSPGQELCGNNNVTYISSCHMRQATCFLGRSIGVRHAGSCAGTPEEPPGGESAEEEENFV

[7] = molecular target: T7, SCARF1 (Homo sapiens (Human), UniProt Q14162 20-421)
T7 sequence: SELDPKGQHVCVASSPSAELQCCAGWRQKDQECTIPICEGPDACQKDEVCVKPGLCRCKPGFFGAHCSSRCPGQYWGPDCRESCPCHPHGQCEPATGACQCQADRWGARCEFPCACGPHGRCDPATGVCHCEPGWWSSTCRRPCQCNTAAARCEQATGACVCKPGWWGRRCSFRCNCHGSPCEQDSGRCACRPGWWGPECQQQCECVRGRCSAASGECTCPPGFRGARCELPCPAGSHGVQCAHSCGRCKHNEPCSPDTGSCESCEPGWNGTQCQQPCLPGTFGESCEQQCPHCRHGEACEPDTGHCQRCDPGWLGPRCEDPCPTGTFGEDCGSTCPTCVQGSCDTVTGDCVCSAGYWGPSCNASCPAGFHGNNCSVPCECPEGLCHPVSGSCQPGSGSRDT

[8] = molecular target: T8, WIF1 (Homo sapiens (Human), UniProt Q9Y5W5 29-379)
T8 sequence: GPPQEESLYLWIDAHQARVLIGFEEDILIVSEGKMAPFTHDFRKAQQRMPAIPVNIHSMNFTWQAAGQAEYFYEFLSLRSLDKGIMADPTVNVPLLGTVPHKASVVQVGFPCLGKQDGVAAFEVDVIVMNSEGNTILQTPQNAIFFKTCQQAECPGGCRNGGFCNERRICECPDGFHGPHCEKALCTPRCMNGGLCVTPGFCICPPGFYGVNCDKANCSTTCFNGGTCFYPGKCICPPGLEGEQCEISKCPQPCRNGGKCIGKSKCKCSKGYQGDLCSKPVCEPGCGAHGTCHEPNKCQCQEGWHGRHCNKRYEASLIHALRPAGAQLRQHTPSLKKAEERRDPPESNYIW

Measured: binding result

B1: PD1-41C9 (antibody, V domains shown)
VH: QMQLVESGGGVVQPGRSLRLSCAASGFTFSSYAMHWVRQAPGKGLEWVAVISYDGSNKYYADSVKGRFTISRDNSKNTLYLQMNRLRSEDTAVYYCTTTTFDSWGQGTLITVSS
VL: DIVMTQTPLSLPVTPGEAASISCRSSQSLLDSEDGNTYLDWYLQKPGQSPQLLIYTLSHRASGVPDRFSGSGSGTDFTLKISRVAAEDVGLYYCLQRMGFPYTFGQGTKLDIK
notes: scFv-phage in the screening ELISA; whole IgG in the other assays
no binding (tested: 1 ug/ml): [1] | [2] | [3] | [4] | [5] | [6] | [7] | [8]

B2: PD1-49A2 (antibody, V domains shown)
VH: QVQLVESGGGVVQPGRSLRLSCAASGFTFSSYAMHWVRQAPGKGLEWVAVISYDGSNKYYADSVKGRFTISRDNPKNTLYLQMNSLRAEDTAVYYCTTTTFDSWGRGTLVTVSS
VL: DIVMTQSPLSLPVTPGEPASISCRSSQSLFDSDDGNTYLDWYLQKPGQSPQLLIYTLSHRASGVPDRFSGSGSGTDFTLKISRVEAEDVGIYYCLQRMGFPYTFGQGTKVEIK
notes: scFv-phage in the screening ELISA; whole IgG in the other assays; also called Parent 49A2
no binding (tested: 1 ug/ml): [1] | [2] | [3] | [4] | [5] | [6] | [7] | [8]

B3: PD1-45D6 (antibody, V domains shown)
VH: QVQLVESGGGVVQPGRSLRLSCAASGFTFSSYAMHWVRQVPGKGLEWVAVISYDGNDKYYADSVKGRFTISRDNSKNTLYLQMNSLRAEDTAVYYCVPTTFEYWGQGSQVTVSS
VL: DIVMTQTPLSLPVTPGEAASISCRSSQSLLDSDDGKTYLDWYLQKPGQSPQLLIYTLSYRASGVPDRFSGSGSGTEFNLRISRVEAEDVGIYYCMQRVEFPFTFGQGTKLDIK
notes: as for B1
no binding (tested: 1 ug/ml): [1] | [2] | [3] | [4] | [5] | [6] | [7] | [8]
